Key:
[1] = system: O=c1ccn([C@@H]2O[C@H](COP(=O)(O)OP(=O)(O)OP(=O)(O)O)[C@@H](O)[C@H]2O)c(=O)[nH]1; assay: purified protein; conditions: 10 mM MgCl2, 300 mM Tris-glycine pH 9.5, 0.004% trans-PCC-α-M, 20 min, 0-5 mM NTP
[2] = system: Nc1nc2c(ncn2[C@@H]2O[C@H](COP(=O)(O)OP(=O)(O)OP(=O)(O)O)[C@@H](O)[C@H]2O)c(=O)[nH]1; assay: purified protein; conditions: 10 mM MgCl2, 300 mM Tris-glycine pH 9.5, 0.004% trans-PCC-α-M, 20 min, 0-5 mM NTP
[3] = system: Nc1ncnc2c1ncn2[C@@H]1O[C@H](COP(=O)(O)OP(=O)(O)OP(=O)(O)O)[C@@H](O)[C@H]1O; assay: purified protein; conditions: 10 mM MgCl2, 300 mM Tris-glycine pH 9.5, 0.004% trans-PCC-α-M, 20 min, 0-5 mM NTP
[4] = system: Nc1ccn([C@@H]2O[C@H](COP(=O)(O)OP(=O)(O)OP(=O)(O)O)[C@@H](O)[C@H]2O)c(=O)n1; assay: purified protein; conditions: 10 mM MgCl2, 300 mM Tris-glycine pH 9.5, 0.004% trans-PCC-α-M, 20 min, 0-5 mM NTP
Pdr5 [5] = biological target: T1, Pdr5 (Saccharomyces cerevisiae, UniProt P33302); assay: inhibition of ATPase, colorimetric phosphate release; format: biochemical
T1 construct: full-length, N-terminal 14x His tag with protease cleavage site; homologous expression in S. cerevisiae (pdr1-3), solubilized and purified in trans-PCC-α-M by IMAC and SEC
From the text: inhibition of ATPase, colorimetric phosphate release on Pdr5

Pdr5 [6] = biological target: T1, Pdr5; assay: enzyme-coupled (PK/LDH, NADH) ATPase assay; format: biochemical; conditions: 4 mM ATP, 5 mM MgCl2, 300 mM Tris-glycine pH 8, 30 °C, 0.004% trans-PCC-α-M

T1 sequence (P33302 whole entry): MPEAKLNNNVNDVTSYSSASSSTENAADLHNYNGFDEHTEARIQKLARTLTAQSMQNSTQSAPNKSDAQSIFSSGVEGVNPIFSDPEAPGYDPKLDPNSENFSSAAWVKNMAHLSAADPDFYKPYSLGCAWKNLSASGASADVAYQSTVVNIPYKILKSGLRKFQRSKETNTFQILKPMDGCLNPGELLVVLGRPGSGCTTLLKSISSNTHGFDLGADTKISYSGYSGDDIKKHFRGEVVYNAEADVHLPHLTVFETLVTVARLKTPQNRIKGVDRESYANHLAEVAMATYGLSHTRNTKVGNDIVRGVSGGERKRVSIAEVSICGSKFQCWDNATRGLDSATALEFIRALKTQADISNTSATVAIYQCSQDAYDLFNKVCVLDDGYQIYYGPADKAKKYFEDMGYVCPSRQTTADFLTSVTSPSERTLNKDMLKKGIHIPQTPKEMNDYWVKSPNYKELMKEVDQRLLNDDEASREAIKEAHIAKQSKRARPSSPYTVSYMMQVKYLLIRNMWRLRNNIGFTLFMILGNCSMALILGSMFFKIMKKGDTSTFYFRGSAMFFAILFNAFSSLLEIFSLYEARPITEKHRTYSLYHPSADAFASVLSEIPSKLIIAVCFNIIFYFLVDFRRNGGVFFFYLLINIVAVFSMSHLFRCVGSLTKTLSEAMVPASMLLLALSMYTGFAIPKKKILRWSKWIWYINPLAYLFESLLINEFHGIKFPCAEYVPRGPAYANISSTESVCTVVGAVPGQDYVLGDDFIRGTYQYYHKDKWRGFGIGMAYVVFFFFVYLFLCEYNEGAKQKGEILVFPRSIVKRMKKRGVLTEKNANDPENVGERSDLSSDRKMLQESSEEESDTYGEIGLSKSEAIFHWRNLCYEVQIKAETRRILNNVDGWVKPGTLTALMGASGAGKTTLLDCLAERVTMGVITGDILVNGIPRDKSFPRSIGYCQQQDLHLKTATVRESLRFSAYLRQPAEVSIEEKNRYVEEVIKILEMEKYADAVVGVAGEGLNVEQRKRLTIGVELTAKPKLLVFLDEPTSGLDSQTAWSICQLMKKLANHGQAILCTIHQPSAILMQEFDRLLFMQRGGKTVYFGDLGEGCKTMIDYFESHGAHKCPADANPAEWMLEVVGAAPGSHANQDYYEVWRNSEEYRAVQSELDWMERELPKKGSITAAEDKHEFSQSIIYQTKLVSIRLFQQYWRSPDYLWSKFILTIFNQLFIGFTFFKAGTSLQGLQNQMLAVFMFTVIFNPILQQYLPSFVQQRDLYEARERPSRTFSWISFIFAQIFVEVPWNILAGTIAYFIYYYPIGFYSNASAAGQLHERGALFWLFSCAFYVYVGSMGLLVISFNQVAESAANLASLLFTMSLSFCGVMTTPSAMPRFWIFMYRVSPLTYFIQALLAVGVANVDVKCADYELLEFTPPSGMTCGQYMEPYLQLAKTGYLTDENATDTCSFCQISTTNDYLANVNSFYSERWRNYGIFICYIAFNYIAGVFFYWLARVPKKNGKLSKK

Pdr5 (Saccharomyces cerevisiae S288C)
Km [1]: 590 ± 110 µM
Vmax [1]: 0.0646 µmol/min/mg
Vmax/Km [1]: 100 µL/min/mg
Km [2]: 1610 ± 300 µM
Vmax [2]: 0.106 µmol/min/mg
Vmax/Km [2]: 100 µL/min/mg
Km [3]: 440 ± 50 µM
Vmax [3]: 0.208 µmol/min/mg
Vmax/Km [3]: 500 µL/min/mg
Km [4]: 1620 ± 250 µM
Vmax [4]: 0.385 µmol/min/mg
Vmax/Km [4]: 200 µL/min/mg

CCN=c1cc2oc3cc(NCC)c(C)cc3c(-c3ccccc3C(=O)OCC)c-2cc1C [rhodamine 6 G]
Ki (Pdr5 [5]): 3.2 ± 0.2 µM

CC(=O)N1CCN(c2ccc(OCC3COC(Cn4ccnc4)(c4ccc(Cl)cc4Cl)O3)cc2)CC1 (stereo not drawn) [ketoconazole]
Ki (Pdr5 [5]): 22.7 ± 2.1 µM

Nc1ncnc2c1ncn2[C@@H]1O[C@H](COP(=O)(O)O)[C@@H](O)[C@H]1O [AMP]
maximum inhibition at 2 mM AMP (Pdr5 [6]): ~ 20%

Source: article PMC6533308, “In vitro NTPase activity of highly purified Pdr5, a major yeast ABC multidrug transporter” (Scientific Reports, 2019)
